Experimental data reported in US20140056907A1 (Regeneron, published 2014).
Substitutions are numbered along the chain they refer to. Names may count otherwise.

B1: H4H6381P (antibody, human IgG4, V domains shown)
VH: QVQLVQSGAEVKKPGASVKVSCKASGYTFTSYGISWVRQAPGQGLEWMGWISAYNGNTNYAQKLQGRVTMTTDTSTSTAYMELRSLRSDDTAVYYCARDGSYSWFDPWGQGTLVTVSS
VL: not shown
B2: H4H6362P (antibody, V domains shown)
VH: QVQLVESGGGVVQPGRSLRLSCEASGFTFGSYGMHWVRQAPGKGLEWMAVISYDGNSRYSADSVKGRFTISRDNSKNTLYLQMNSLRAEDTALYYCAKENHIAARRPGGLDVWGQGTTVTVSS
VL: DIQMTQSPSSLSASVGDRVTITCRASQGISIYLAWYQQKPGKVPKLLIYAASSLQSGVPSRFSGSGSGTDFTLTISSLQPEDVATYFCQNYNIAPWTLGQGTKVEIK
B3: H3M6721N (antibody, V domains shown)
VH: EVQLLASGGGLVQPGGSLRLSCAASGFTFSSFAMSWVRQAPGKGLEWVSGISGSGVSTYYADSVKGRFTISRDNSKNTLYLQMNSLRAEDTAAYYCAKEAYKWQPWGQGIRVTVSS
VL: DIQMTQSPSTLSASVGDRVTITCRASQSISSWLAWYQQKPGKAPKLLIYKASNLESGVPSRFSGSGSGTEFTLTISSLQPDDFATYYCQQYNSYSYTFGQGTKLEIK
notes: Chimeric: human variable, mouse constant domains; H3M prefix marks the Fc, isotype not spelled out
B4: H2M7103N (antibody, V domains shown)
VH: EVQLVESGGGLVQPGGSLKLSCAASGFTFSSFWMSWVRQAPGKGLEWVANIKQNGSETYYVDSVKGRFTISRDNTKNSLYLQMNSLRAEDTAIYYCARGGRIQLWSSWFDPWGQGTLVTVSS
VL: DIQMTQSPSSLSASVGDRVTITCRASQSIKNYLNWYQQKSGKAPKLLIYAASSLQSGVPSRVSGSGSGTDFTLTISSLHPEDFAAYYCQQSFSAPLTFGGGTKVEIK
notes: Chimeric: human variable, mouse constant domains; Fc isotype not spelled out; also called H2bM7103N
B5: H3M6720N (antibody, V domains shown)
VH: B4 VH
VL: AIQMTQSPSSLSASVGDRVTITCRASQGISNDLGWYQQKPGKAPKLLIYGASSLQTGVPSRFSGSGSGTDFTLTISSLQPEDFATYYCLQDFNYPYTFGQGTKLEIK
notes: as for B3

How the values were obtained:
[1] = target: T1, human ASIC1 (human, UniProt P78348 1-528); assay: FACS, 3T3/hASIC1 cells
T1 construct: Ion channel subunit expressed on 3T3 (3T3/hASIC1) or HEK293 cells (HEK/hASIC1; HEK293 CL:1F10 transient); also called hASIC1; human ASIC1a
T1 sequence: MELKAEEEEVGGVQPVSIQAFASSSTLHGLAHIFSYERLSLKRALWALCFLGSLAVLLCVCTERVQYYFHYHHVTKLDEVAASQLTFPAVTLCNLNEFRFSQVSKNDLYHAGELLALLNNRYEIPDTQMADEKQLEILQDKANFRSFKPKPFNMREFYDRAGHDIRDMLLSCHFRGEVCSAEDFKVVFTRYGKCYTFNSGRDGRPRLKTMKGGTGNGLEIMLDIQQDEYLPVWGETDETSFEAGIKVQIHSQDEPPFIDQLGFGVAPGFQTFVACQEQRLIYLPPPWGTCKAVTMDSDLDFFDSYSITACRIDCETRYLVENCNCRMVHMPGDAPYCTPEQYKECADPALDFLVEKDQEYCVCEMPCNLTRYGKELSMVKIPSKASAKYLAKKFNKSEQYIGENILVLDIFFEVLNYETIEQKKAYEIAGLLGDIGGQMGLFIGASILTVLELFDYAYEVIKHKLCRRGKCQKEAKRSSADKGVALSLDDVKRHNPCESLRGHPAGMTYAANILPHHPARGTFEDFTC
Text: To further characterize anti-ASIC1 antibodies, their ability to bind either (a) a mouse fibroblast 3T3 cell line stably transfected to overexpress full length human ASIC1 (3T3/hASIC1; amino acids 1-528 of NCBI accession number NP_{—}001086.2 [SEQ ID NO:401]), (b) a 3T3 cell line stably transfected to over express full length mouse ASIC1a (3T3/mASIC1a; amino acids 1-526 of NCBI accession number NP_{—}033727), or (c) a ND7 cell line (ECACC, #92090903) that is a fusion cell line of mouse neuroblastoma and rat dorsal root ganglia that endogenously expresses rat ASIC1, was determined using flow cytometry (FACS). ND7 cells were differentiated by replacing the culture media with low-serum media (0.5% FBS) containing 1 mM dibutyryl-cAMP (Cat. No. sc-201567A, Santa Cruz Biotechnology, Inc., Santa Cruz, Calif.). […]
(§1) To perform the FACS binding experiments, adherent cells were collected using 1 mM EDTA in PBS, then washed, and re-suspended in cold PBS containing 5% FBS. […] After incubating for 20 minutes on ice, the cells were washed and resuspended in PBS containing 5% FBS, then sorted and analyzed on a flow cytometer (FACSCalibur, BD Biosciences, San Jose, Calif.) to determine relative binding by the candidate antibodies to the tested cell lines. […] Percentage of ASIC1 signal over secondary antibody alone was calculated using FlowJo software (Tree Star, Ashland, Oreg.).

[2] = target: T1, human ASIC1; assay: cell-based or functional assay
[3] = target: T1, human ASIC1; assay: cell-based or functional assay; remark: listed apart in the source
[4] = target: T2, mouse ASIC1a (mouse, UniProt Q6NXK8 1-526); assay: cell-based or functional assay
T2 sequence (looked up): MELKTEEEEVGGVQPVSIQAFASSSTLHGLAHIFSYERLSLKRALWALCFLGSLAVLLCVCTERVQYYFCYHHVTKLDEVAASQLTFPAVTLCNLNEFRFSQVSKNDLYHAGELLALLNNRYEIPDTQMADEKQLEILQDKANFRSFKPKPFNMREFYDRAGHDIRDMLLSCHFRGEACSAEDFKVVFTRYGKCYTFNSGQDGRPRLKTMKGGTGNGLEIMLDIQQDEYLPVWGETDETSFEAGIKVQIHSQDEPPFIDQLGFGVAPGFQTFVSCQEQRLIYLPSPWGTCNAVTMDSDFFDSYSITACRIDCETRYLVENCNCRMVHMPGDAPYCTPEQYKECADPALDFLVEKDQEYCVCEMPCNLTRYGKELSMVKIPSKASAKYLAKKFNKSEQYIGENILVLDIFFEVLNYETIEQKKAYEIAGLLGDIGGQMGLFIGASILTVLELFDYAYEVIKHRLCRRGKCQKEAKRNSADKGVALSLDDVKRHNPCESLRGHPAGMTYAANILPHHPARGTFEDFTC

[5] = target: T1, human ASIC1; assay: cell-based or functional assay; remark: listed apart in the source
[6] = target: T3, rat ASIC1 (rat, UniProt P55926 1-526); assay: FACS, undifferentiated ND7 cells
T3 construct: whole, on cells; ND7 is a fusion line of mouse neuroblastoma and rat dorsal root ganglia; also called rat ASIC1a
T3 sequence (looked up): T2 sequence (looked up) with N476S
Text: (§2) To further characterize anti-ASIC1 antibodies, their ability to bind either (a) a mouse fibroblast 3T3 cell line stably transfected to overexpress full length human ASIC1 (3T3/hASIC1; amino acids 1-528 of NCBI accession number NP_{—}001086.2 [SEQ ID NO:401]), (b) a 3T3 cell line stably transfected to over express full length mouse ASIC1a (3T3/mASIC1a; amino acids 1-526 of NCBI accession number NP_{—}033727), or (c) a ND7 cell line (ECACC, #92090903) that is a fusion cell line of mouse neuroblastoma and rat dorsal root ganglia that endogenously expresses rat ASIC1, was determined using flow cytometry (FACS). ND7 cells were differentiated by replacing the culture media with low-serum media (0.5% FBS) containing 1 mM dibutyryl-cAMP (Cat. No. sc-201567A, Santa Cruz Biotechnology, Inc., Santa Cruz, Calif.). FACS binding was tested for some antibodies on both undifferentiated ND7 cells and differentiated ND7 cells.
as §1, with “PBS containing 5% FBS. For each binding experiment, each anti-ASIC1 antibody (at final concentrations of 10 nM of purified antibodies or 3.3 nM for antibody supernatants for binding to 3T3/hASIC1 cells and 5 nM for binding to 3T3/mASIC1a or ND7 cells) was added to 250,000 cells in 500 μL of PBS with 5% FBS.” for “PBS containing 5% FBS.”

[7] = target: T1, human ASIC1; assay: FACS titration, 3T3/hASIC1 cells
Description: To perform the FACS binding experiments, adherent cells were collected using 1 mM EDTA in PBS, then washed, and re-suspended in cold PBS containing 5% FBS. For each binding experiment, each anti-ASIC1 antibody ([…] or ND7 cells) was added to 250,000 cells in 500 μL of PBS with 5% FBS. After incubation for 20 minutes at room temperature, a secondary antibody which recognizes human Fc (Cat. No. 109-136-098, Jackson ImmunoResearch Laboratories, Inc., West Grove, Pa.) or mouse Fc (Cat. No. 550826, BD Biosciences, San Jose, Calif.) and is conjugated to allophycocyanin, was then added to the cell mixture at a final concentration of 13.3 nM. After incubating for 20 minutes on ice, the cells were washed and resuspended in PBS containing 5% FBS, then sorted and analyzed on a flow cytometer (FACSCalibur, BD Biosciences, San Jose, Calif.) to determine relative binding by the candidate antibodies to the tested cell lines. Histograms of cells stained with anti-ASIC1 antibodies were compared with those of cells stained with secondary antibody alone. Percentage of ASIC1 signal over secondary antibody alone was calculated using FlowJo software (Tree Star, Ashland, Oreg.).

[8] = target: T2, mouse ASIC1a; assay: FACS, 3T3/mASIC1a cells
Text: as §2
To perform the FACS binding experiments, adherent cells were collected using 1 mM EDTA in PBS, then washed, and re-suspended in cold PBS containing 5% FBS. For each binding experiment, each anti-ASIC1 antibody (at final concentrations of 10 nM of purified antibodies or 3.3 nM for antibody supernatants for binding to 3T3/hASIC1 cells and 5 nM for binding to 3T3/mASIC1a or ND7 cells) was added to 250,000 cells in 500 μL of PBS with 5% FBS. After incubation for 20 minutes at room temperature, a secondary antibody which recognizes human Fc (Cat. No. 109-136-098, Jackson ImmunoResearch Laboratories, Inc., West Grove, Pa.) or mouse Fc (Cat. No. 550826, BD Biosciences, San Jose, Calif.) and is conjugated to allophycocyanin, was then added to the cell mixture at a final concentration of 13.3 nM. After incubating for 20 minutes on ice, the cells were washed and resuspended in PBS containing 5% FBS, then sorted and analyzed on a flow cytometer (FACSCalibur, BD Biosciences, San Jose, Calif.) to determine relative binding by the candidate antibodies to the tested cell lines. Histograms of cells stained with anti-ASIC1 antibodies were compared with those of cells stained with secondary antibody alone. Percentage of ASIC1 signal over secondary antibody alone was calculated using FlowJo software (Tree Star, Ashland, Oreg.).

| Binder | binding result [1] | Current inhibition (%) at 100 nM antibody, Q-Patch, pH 6.0 [2] [%] | apparent IC50, human ASIC1 current, Q-Patch [3] [nM] | apparent IC50, mouse ASIC1 current, Q-Patch [4] [nM] | FLIPR Dose Curve, pH 5.0 % Block [5] [%] | FLIPR Dose Curve, pH 5.5 % Block [5] [%] | FLIPR Dose Curve, pH 5.5 IC50 [5] [nM] | binding result [6] | EC50 [7] [nM] | binding result [8] |
| --- | --- | --- | --- | --- | --- | --- | --- | --- | --- | --- |
| B1 | no binding | 25 | – | – | – | – | – | – | – | – |
| B2 | no binding | 29 | – | – | – | – | – | – | – | – |
| B3 | – | 100 | ≤ 10 | < 25 | 25 | 44 | 0.3 | no binding (tested: 5 nM; gated lower than 1%) | 0.085 | – |
| B4 | – | 92 | ≤ 10 | < 25 | – | – | – | no binding (tested: 5 nM; gated lower than 1%) | 1.7 | – |
| B5 | – | 82 | ≤ 10 | < 25 | – | – | – | no binding (tested: 5 nM; gated lower than 1%) | 1.1 | no binding (tested: 5 nM; gated lower than 1%) |
